# IntAct's records for PubMed 25283965
# B1: C-C chemokine receptor type 2 (Homo sapiens), P41597-2 (parent)
# chain: MLSTSRSRFIRNTNESGEEVTTFFDYDYGAPCHKFDVKQIGAQLLPPLYSLVFIFGFVGNMLVVLILINCKKLKCLTDIYLLNLAISDLLFLITLPLWAHSAANEWVFGNAMCKLFTGLYHIGYFGGIFFIILLTIDRYLAIVHAVFALKARTVTFGVVTSVITWLVAVFASVPGIIFTKCQKEDSVYVCGPYFPRGWNNFHTIMRNILGLVLPLLIMVICYSGILKTLLRCRNEKKRHRAVRVIFTIMIVYFLFWTPYNIVILLNTFQEFFGLSNCESTSQLDQATQVTETLGMTHCCINPIIYAFVGEKFRRYLSVFFRKHITKRFCKQCPVFYRETVDGVTSTNTPSTGEQEVSAGL
# partner: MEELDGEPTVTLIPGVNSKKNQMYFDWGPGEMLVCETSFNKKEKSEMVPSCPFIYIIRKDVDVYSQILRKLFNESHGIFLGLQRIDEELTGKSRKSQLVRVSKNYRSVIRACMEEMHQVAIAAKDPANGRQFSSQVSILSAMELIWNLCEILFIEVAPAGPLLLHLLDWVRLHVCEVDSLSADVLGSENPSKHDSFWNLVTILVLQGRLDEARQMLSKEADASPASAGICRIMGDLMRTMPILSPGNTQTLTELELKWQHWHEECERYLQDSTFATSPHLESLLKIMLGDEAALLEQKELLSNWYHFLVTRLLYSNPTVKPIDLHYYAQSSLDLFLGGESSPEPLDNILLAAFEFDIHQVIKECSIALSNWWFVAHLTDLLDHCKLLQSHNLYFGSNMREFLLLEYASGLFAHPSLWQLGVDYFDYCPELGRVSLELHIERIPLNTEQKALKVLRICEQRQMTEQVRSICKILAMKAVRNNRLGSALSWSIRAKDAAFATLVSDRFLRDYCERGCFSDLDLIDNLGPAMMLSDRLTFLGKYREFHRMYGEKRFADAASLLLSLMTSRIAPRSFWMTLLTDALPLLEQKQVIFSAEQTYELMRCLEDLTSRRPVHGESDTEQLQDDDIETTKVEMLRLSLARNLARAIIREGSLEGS
# Variants of: B1
# Conditions: with nup85_human NUP85, Q9BW27
row,Variant,effect of a mutation on the interaction
1,F319D,decreasing interaction strength

# Variants of: B1
# Conditions: with nup85_human NUP85, Q9BW27
# Remark: another data set of the same source
row,Variant,effect of a mutation on the interaction
1,L316T,decreasing interaction strength
